According to patent US20260184777A1 (BEIJING SUNGEN BIOMEDICAL TECHNOLOGY, published 2026):

T1: human S100A8/A9 heterodimeric antigen, His-tagged (hS100A8/A9-His) (human, UniProt P05109 1-93; P06702 1-114)
T1 sequence 1: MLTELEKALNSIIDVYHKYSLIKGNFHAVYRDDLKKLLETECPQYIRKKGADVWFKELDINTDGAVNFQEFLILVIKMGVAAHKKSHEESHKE
T1 sequence 2: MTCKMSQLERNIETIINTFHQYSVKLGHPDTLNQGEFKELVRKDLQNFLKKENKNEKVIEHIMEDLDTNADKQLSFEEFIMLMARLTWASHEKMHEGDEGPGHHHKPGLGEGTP

B1: CM-27 (antibody, human IgG4 S228P, lambda, V domains shown)
VH: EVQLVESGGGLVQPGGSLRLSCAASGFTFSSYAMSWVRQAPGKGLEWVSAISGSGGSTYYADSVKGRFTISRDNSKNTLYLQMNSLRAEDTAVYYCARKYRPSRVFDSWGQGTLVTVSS
VL: SYELTQPPSVSVAPGQTARITCSGDALGDKYASWYQQKPGQAPVLVIYQDSKRPSGIPERFSGSNSGNTATLTISGTQAEDEADYYCQSNDADSVWVFGGGTKLTVLG
B2: CM-32 (antibody, human IgG4 S228P, lambda, V domains shown)
VH: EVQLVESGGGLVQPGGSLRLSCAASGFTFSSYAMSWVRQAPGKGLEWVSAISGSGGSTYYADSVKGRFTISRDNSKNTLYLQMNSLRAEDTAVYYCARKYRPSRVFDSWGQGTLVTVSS
VL: SYELTQPPSVSVAPGQTARITCSGDALGDKYASWYQQKPGQAPVLVIYEDSHRPSGIPERFSGSNSGNTATLTISGTQAEDEADYYCQSNDADSVWVFGGGTKLTVLG
B3: CM-36 (antibody, human IgG4 S228P, lambda, V domains shown)
VH: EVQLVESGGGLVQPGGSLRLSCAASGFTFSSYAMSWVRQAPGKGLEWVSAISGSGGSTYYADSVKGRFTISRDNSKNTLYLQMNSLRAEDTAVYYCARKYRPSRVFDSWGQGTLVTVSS
VL: SYELTQPPSVSVAPGQTARITCSGDALGDKYASWYQQKPGQAPVLVIYEDSKRPSGIPERFSGSNSGNTATLTISGTQAEDEADYYCQSNDVDSVWVFGGGTKLTVLG
B4: CM-28 (antibody, human IgG4 S228P, lambda, V domains shown)
VH: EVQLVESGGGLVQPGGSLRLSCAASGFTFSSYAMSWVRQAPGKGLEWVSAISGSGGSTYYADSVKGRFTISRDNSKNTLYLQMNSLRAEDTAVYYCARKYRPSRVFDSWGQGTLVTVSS
VL: SYELTQPPSVSVAPGQTARITCSGDALGDKYASWYQQKPGQAPVLVIYEHSKRPSGIPERFSGSNSGNTATLTISGTQAEDEADYYCQSNDADSVWVFGGGTKLTVLG
B5: CM-30 (antibody, human IgG4 S228P, lambda, V domains shown)
VH: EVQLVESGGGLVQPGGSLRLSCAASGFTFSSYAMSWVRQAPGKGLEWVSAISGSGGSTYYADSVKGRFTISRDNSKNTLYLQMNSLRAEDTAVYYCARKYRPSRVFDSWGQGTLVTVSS
VL: SYELTQPPSVSVAPGQTARITCSGDALGDKYASWYQQKPGQAPVLVIYEDAKRPSGIPERFSGSNSGNTATLTISGTQAEDEADYYCQSNDADSVWVFGGGTKLTVLG
B6: CM-29 (antibody, human IgG4 S228P, lambda, V domains shown)
VH: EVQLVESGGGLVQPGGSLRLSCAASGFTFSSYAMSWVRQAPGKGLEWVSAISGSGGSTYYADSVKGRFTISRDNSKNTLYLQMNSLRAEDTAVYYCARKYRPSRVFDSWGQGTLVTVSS
VL: SYELTQPPSVSVAPGQTARITCSGDALGDKYASWYQQKPGQAPVLVIYEQSKRPSGIPERFSGSNSGNTATLTISGTQAEDEADYYCQSNDADSVWVFGGGTKLTVLG
B7: CM-37 (antibody, human IgG4 S228P, lambda, V domains shown)
VH: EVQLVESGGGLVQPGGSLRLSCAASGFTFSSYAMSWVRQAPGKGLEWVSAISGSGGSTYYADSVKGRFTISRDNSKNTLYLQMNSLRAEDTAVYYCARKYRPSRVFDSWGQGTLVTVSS
VL: SYELTQPPSVSVAPGQTARITCSGDALGDKYASWYQQKPGQAPVLVIYEDSKRPSGIPERFSGSNSGNTATLTISGTQAEDEADYYCQSNDLDSVWVFGGGTKLTVLG
B8: CM-35 (antibody, human IgG4 S228P, lambda, V domains shown)
VH: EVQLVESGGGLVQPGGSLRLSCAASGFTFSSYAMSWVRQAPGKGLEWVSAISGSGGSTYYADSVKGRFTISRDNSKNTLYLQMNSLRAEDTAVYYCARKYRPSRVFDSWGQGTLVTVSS
VL: SYELTQPPSVSVAPGQTARITCSGDALGDKYASWYQQKPGQAPVLVIYEDSKRPSGIPERFSGSNSGNTATLTISGTQAEDEADYYCDSNDADSVWVFGGGTKLTVLG
B9: CM-34 (antibody, human IgG4 S228P, lambda, V domains shown)
VH: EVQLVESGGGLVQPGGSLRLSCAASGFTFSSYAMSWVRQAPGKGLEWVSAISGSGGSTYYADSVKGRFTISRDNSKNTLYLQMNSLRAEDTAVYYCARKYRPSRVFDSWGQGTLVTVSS
VL: SYELTQPPSVSVAPGQTARITCSGDALGDKYASWYQQKPGQAPVLVIYEDSPRPSGIPERFSGSNSGNTATLTISGTQAEDEADYYCQSNDADSVWVFGGGTKLTVLG
B10: CM-33 (antibody, human IgG4 S228P, lambda, V domains shown)
VH: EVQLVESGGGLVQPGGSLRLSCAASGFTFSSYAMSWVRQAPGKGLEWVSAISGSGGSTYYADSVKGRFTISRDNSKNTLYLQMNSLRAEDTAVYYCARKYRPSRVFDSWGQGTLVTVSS
VL: SYELTQPPSVSVAPGQTARITCSGDALGDKYASWYQQKPGQAPVLVIYEDSRRPSGIPERFSGSNSGNTATLTISGTQAEDEADYYCQSNDADSVWVFGGGTKLTVLG
B11: CM-31 (antibody, human IgG4 S228P, lambda, V domains shown)
VH: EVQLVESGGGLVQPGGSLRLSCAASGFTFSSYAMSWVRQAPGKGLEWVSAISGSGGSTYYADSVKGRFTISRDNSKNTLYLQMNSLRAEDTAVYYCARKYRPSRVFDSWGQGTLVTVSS
VL: SYELTQPPSVSVAPGQTARITCSGDALGDKYASWYQQKPGQAPVLVIYEDHKRPSGIPERFSGSNSGNTATLTISGTQAEDEADYYCQSNDADSVWVFGGGTKLTVLG
B12: CM-38 (antibody, human IgG4 S228P, lambda, V domains shown)
VH: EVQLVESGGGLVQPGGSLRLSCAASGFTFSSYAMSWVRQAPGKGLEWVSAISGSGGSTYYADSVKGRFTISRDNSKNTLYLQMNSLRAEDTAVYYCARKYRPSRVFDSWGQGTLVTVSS
VL: SYELTQPPSVSVAPGQTARITCSGDALGDKYASWYQQKPGQAPVLVIYEDSKRPSGIPERFSGSNSGNTATLTISGTQAEDEADYYCQSNDIDSVWVFGGGTKLTVLG
B13: CM-39 (antibody, human IgG4 S228P, lambda, V domains shown)
VH: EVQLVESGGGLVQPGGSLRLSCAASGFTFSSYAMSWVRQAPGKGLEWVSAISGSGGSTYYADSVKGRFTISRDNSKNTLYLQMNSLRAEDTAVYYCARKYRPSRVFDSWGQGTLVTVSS
VL: SYELTQPPSVSVAPGQTARITCSGDALGDKYASWYQQKPGQAPVLVIYEDSKRPSGIPERFSGSNSGNTATLTISGTQAEDEADYYCQSNDADAVWVFGGGTKLTVLG

Each binder was assayed against T1, human S100A8/A9 heterodimeric antigen, … (assay: cell-based or functional assay).

Point of comparison: B12, “IC50, inhibition of IL-6 release from hS100A8/A9-activated human PBMCs” value 0.084 µg/mL. Against it:
- B1 — 3-fold higher, 0.253 µg/mL
- B2 — 6.4-fold higher, 0.536 µg/mL
- B3 — 4.7-fold higher, 0.393 µg/mL
- B4 — 21-fold higher, 1.74 µg/mL
- B5 — 5.2-fold higher, 0.434 µg/mL
- B6 — 24-fold higher, 2 µg/mL
- B7 — 4-fold higher, 0.335 µg/mL
- B8 — 7.8-fold higher, 0.655 µg/mL
- B9 — 15-fold higher, 1.22 µg/mL
- B10 — 5.4-fold higher, 0.452 µg/mL
- B11 — 5.7-fold higher, 0.48 µg/mL
- B13 — 5.4-fold higher, 0.452 µg/mL
